Changes are numbered by the printed parent chain. In names and notes the source's numbering stands.
Key:
[1] = biological target: the molecule itself; assay: thioflavin T fluorescence
[2] = biological target: the molecule itself; assay: solution NMR, decay of monomer signals over time

B1: human RIPK1 RHIM-harboring domain (residues 496-583), wild type (domain or fragment, UniProt Q13546 496-583, looked up)
chain: HMPSLHNIPVPETNYLGNTPTMPFSSLPPTDESIKYTIYNSTGIQIGAYNYMEIGGTSSSLLDSTNTNFKEEPAAKYQAIFDNTTSLT
binding result [1]: binds

B2: human RIPK1 RHIM-harboring domain (residues 496-583), N545D variant (domain or fragment, UniProt Q13546 496-583, looked up)
chain: B1 chain with N50D
binding result [2]: binds

— paper PMC12575786 (Nature communications, 2025)
